This note sets out measurements from patent publication US20120220522A1.

For this experiment, the target named is insulin receptor (IR), B-isoform (UniProt P06213). In words: relative binding affinity to insulin receptor, displacement of 125I-human insulin.

Bounds are passed on as bounds.

In the case of “ester insulin lispro folded (2) (ligand)”, the relative activity (relative binding affinity) is under 0.5%.
